Reference: paper PMC4409726, “Characterization of chromosomal and megaplasmid partitioning loci in Thermus thermophilus HB27”

T1: ParBc (Thermus thermophilus HB27, UniProt Q72H91 1-269)
T1 sequence: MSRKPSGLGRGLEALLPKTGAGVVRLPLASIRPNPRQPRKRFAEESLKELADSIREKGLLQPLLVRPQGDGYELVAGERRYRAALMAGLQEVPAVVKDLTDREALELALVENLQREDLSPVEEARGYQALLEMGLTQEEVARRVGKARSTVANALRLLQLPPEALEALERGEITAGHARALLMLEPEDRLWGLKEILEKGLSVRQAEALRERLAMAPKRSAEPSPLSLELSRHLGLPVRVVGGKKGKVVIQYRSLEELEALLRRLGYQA

T2: ParBm (Thermus thermophilus HB27, UniProt Q746H2 1-297)
T2 sequence: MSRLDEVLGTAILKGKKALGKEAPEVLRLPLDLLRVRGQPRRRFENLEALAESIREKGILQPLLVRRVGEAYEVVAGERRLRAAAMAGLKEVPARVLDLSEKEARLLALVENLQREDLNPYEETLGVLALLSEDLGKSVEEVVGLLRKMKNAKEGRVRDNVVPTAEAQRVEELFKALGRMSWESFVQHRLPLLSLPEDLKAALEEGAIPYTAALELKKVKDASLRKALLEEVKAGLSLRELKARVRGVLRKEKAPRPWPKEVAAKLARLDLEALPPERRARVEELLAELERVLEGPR

B1: WT parSc 25-bp probe (dsDNA)
DNA 1: TGTTTCCCGTGAAACATCAGGCGCC
DNA 2: GGCGCCTGATGTTTCACGGGAAACA
B2: WT parSm 18-bp probe (dsDNA)
DNA 1: GCAAGGACGCGTCCTTCA
DNA 2: TGAAGGACGCGTCCTTGC

Legend:
[1] = molecular target: T1, ParBc; test: EMSA; poly(dI-dC); WT competitor competes much better than mutant; 50 mM KCl, 10 mM Tris-HCl pH 7.0, 1 mM EDTA, 1 mM DTT, 4% glycerol, 0.02 ug/ul poly(dI-dC), 25 ul, 15 pmol FAM probe, 0 or 200 pmol ParB (competition), 25 C 30; conditions: protein: recombinant; tags: His tag implied (pET21a, Ni-IDA); chain copies: 2; blunt
[2] = molecular target: T2, ParBm; test: as above; conditions: protein: recombinant; tags: His tag implied (pET21a, Ni-IDA); chain copies: 2; blunt

Row | Binder | binding result [1] | binding result [2]
1 | B1 | binds | –
2 | B2 | – | binds
